US20060286611A1, “Antibodies against biotinylated histones and related proteins and assays related thereto” (Board of Regents of University of Nebraska, priority 2005, published 2006)
Non-standard residues stand in square brackets, D forms with d. No end group written: not given here. *: point of attachment. Me2 = dimethyl-lysine (dimethyl-epsilon-NH2-L-lysine); For = O=C*

How the values were obtained:
Assay type in all cases: biochemical
biotinidase [1] = biological target: T1, biotinidase (Homo sapiens, UniProt P43251); test: Enzymatic biotinylation of synthetic histone H4 peptides by biotinidase; conditions: for enzymatic biotinylation by biotinidase, peptide-bound biotin probed with streptavidin peroxidase: human plasma as source of biotinidase, biocytin, 37° C., 45 min
T1 construct: 60 μL of human plasma; from tissue; host or cells: human plasma
T1 sequence (P43251 22-523): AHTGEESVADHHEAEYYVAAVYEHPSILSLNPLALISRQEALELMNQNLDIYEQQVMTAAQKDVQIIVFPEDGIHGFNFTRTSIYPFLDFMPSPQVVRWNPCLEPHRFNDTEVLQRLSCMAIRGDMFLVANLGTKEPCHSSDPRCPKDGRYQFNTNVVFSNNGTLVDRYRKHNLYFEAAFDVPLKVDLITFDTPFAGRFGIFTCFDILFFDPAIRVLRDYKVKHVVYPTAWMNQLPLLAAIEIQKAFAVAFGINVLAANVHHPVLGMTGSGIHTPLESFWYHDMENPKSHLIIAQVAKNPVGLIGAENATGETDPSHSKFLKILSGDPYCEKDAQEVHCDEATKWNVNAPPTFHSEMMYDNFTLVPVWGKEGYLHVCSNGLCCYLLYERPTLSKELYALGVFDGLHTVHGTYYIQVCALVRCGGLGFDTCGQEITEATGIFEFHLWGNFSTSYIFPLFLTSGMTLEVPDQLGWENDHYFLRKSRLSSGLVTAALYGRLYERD
Description: It has been proposed that the following catalytic sequence leads to biotinylation in histones (Hymes et al., 1995; Hyme and Wolf, 1999). First, biocytin is cleaved by biotinidase to form an intermediate, cysteine-bound biotin. Second, the biotinyl moiety from the cysteine residue is transferred to the ε-amino group of lysines in histones. In the present study, synthetic peptides were biotinylated enzymatically using human plasma (as source of biotinidase) and biocytin (as source of biotin) as described previously (Hymes et al., 1995). Peptide concentrations in stock solutions were adjusted to 50 mg/L; 20 μL of peptide solution was mixed with 1.88 mL of 50 mmol/L Tris (pH 8.0), 40 μL of 0.75 mmol/L biocytin and 60 μL of human plasma. Samples were incubated […] at 37° C. for 45 min and stored at −70° C. unless stated otherwise.
After enzymatic biotinylation, peptides were electrophoresed using 16% tricine polyacrylamide gels according to the manufacturer's instructions (Invitrogen, Carlsbad, Calif.). Peptides were electroblotted onto polyvinylidene fluoride membranes (Millipore, Bedford, Mass.), which were blocked with 50 mL of 30 g/L BSA. Peptide-bound biotin was probed with streptavidin peroxidase (Stanley et al., 2001).

biotinidase [2] = biological target: T1, biotinidase; test: Enzymatic biotinylation of synthetic histone H2A and H2A.X peptides by biotinidase; conditions: human plasma as source of biotinidase, 75 μmol/L biocytin, pH 8.0, 37° C., up to 45 minutes
Description: In Examples described above, the inventors developed a procedure to identify amino acid residues in histones that are targets for biotinylation. […] Amino acid substitutions (e.g., lysine-to-alanine substitutions) in synthetic peptides are used to corroborate identification of biotinylation sites. In addition, amino acid modifications (e.g., acetylation of lysines) in peptides can be used to investigate the cross-talk between biotinylation of histones and other known modifications of histones.
Peptides from both the N- and C-terminal regions of histone H2A and H2A.X were included in the analysis of biotinylation sites. […] Reactions were quenched by adding an equal volume of Tricine gel loading buffer (Invitrogen, Carlsbad, Calif.).

biotinidase [3] = biological target: T1, biotinidase; test: Enzymatic biotinylation of synthetic histone H3 peptides by biotinidase; conditions: biotinidase and biocytin, 45 min
histone H1 = test: Proteolytic digestion of histone H1
Experimental: Here the inventors determined whether biotin release is mediated by proteolytic digestion of histones. One milligram of histone H1 was dissolved in 100 μl of 20 mM sodium acetate [pH 4.5]. 0.4 microliters of histone solution was mixed with 7.1 μl of nuclear extract containing 20 μg of protein; samples were incubated at 37° C. for 20 min. The following controls were tested: histones incubated without nuclear extract, and histones incubated with 2.5 microliter trypsin [with or without 20 mM of the trypsin inhibitor, phenylmethylsulphonylfluoride (PMSF)]. Reactions were terminated by heating the samples with equal volume of loading buffer at 72° C. for 10 min. Proteins were resolved using 4-12% Bis-Tris gels (Invitrogen, Carlsbad, Calif.) as described (Stanley et al., 2001) and were visualized using coomassie blue.

Compound	enzymatic biotinylation by biotinidase, peptide-bound biotin probed with streptavidin peroxidase (biotinidase [1])	other results
6: histone H4 positions 6-15, Ac-K in position 12 (Ac-GGKGLGK(Ac)GGA) [Peptide 6]	decreased biotinylation of the peptide	–
12: histone H4 positions 6-15, arginine in position 8 (Ac-GGRGLGKGGA) [Peptide 12]	decreased substantially	–
2: histone H4 positions 6-15, alanine in position 8 (Ac-GGAGLGKGGA) [Peptide 2]	decreased substantially	–
NC(=O)NCCC[C@H](N)C(=O)O [citrulline]	–	enzymatic biotinylation by biotinidase, peptide-bound biotin probed with streptavidin peroxidase (biotinidase [2]): good targets for biotinylation; enzymatic biotinylation by biotinidase, peptide-bound biotin probed with streptavidin-peroxidase (biotinidase [3]): relatively poor target for biotinylation
13: histone H4 positions 6-15, arginine in position 12 (Ac-GGKGLGRGGA) [Peptide 13]	decreased moderately	–
trypsin	–	degradation of histone H1 by gel electrophoresis (histone H1; 37° C. for 20 min): degraded completely
O=S(=O)(F)Cc1ccccc1 [PMSF, phenylmethylsulphonylfluoride]	–	degradation of histone H1 by trypsin in the presence of the inhibitor (histone H1; 20 mM): prevented
19: histone H4 positions 6-15, glutamine in positions 8 and 12 (Ac-GGQGLGQGGA) [Peptide 19]	no enzymatic biotinylation was detectable	–
16: histone H4 positions 6-15, glutamate in position 12 [Peptide 16]	not detectable	–
14: histone H4 positions 6-15, arginine in positions 8 and 12 (Ac-GGRGLGRGGA) [Peptide 14]	not detected	–
17: histone H4 positions 6-15, glutamine in position 8 (Ac-GGQGLGKGGA) [Peptide 17]	decreased compared to the native peptide	–
20: histone H4 positions 6-15, D-lysine in position 12 (Ac-GGKGLG[dK]GGA) [Peptide 20]	decreased only moderately	–
8: histone H4 positions 6-15, Dme-K in position 12 (Ac-GGKGLGK(Me2)GGA) [Peptide 8]	decreased substantially	–
15: histone H4 positions 6-15, glutamate in position 8 [Peptide 15]	not detectable	–
5: histone H4 positions 6-15, Ac-K in position 8 (Ac-GGK(Ac)GLGKGGA) [Peptide 5]	barely detectable	–
7: histone H4 positions 6-15, Dme-K in position 8 (Ac-GGK(Me2)GLGKGGA) [Peptide 7]	decreased substantially	–
GGKGLGKGGA (Ac-GGKGLGKGGA) [Peptide 1, amino acids 6 through 15 in histone H4, native control]	efficiently biotinylated	–
SGRGKGGKGLGKGGAKRHR [SEQ ID NO:7, N-terminal 19 amino acids of histone H4]	–	time at which abundance of biotinylated peptide reached a plateau (biotinidase [1]; incubated with plasma and biocytin for 0 to 60 min): 20 to 60 min
4: histone H4 positions 6-15, alanine in positions 8 and 12 (Ac-GGAGLGAGGA) [Peptide 4]	did not undergo biotinylation	–
9: histone H4 positions 6-15, For-K in position 12 (Ac-GGKGLGK(For)GGA) [Peptide 9]	decreased compared to the native peptide	–
K4,9A1-9: histone H3 amino acids 1 to 9, K4 and K9 substituted by alanine (ARTAQTARA)	–	enzymatic biotinylation by biotinidase, peptide-bound biotin probed with streptavidin-peroxidase (biotinidase [3]): no binding of biotin was detectable
K23A16-23: histone H3 amino acids 16 to 23, K23 substituted with alanine (PRKQLATA) [Peptide K23A16-23]	–	enzymatic biotinylation by biotinidase, peptide-bound biotin probed with streptavidin-peroxidase (biotinidase [3]): weak
N9-16: histone H3 amino acids 9-16, including K9 and K14 (KSTGGKAP; UniProt P68431 10-17, looked up, fragment) [Peptide N9-16]	–	enzymatic biotinylation by biotinidase, peptide-bound biotin probed with streptavidin-peroxidase (biotinidase [3]): relatively poor targets for biotinylation
3: histone H4 positions 6-15, alanine in position 12 (Ac-GGKGLGAGGA) [Peptide 3]	decreased substantially	–
18: histone H4 positions 6-15, glutamine in position 12 (Ac-GGKGLGQGGA) [Peptide 18]	decreased compared to the native peptide	–
